The text below walks through data of article PMC7612745 (Nature, 2019).

The target in assay [1] is T1, Thermus thermophilus multidrug resistance proteins A and B (TmrAB), wild type heterodimer (Thermus thermophilus, UniProt Q72J05;Q72J04).
T1 sequence 1: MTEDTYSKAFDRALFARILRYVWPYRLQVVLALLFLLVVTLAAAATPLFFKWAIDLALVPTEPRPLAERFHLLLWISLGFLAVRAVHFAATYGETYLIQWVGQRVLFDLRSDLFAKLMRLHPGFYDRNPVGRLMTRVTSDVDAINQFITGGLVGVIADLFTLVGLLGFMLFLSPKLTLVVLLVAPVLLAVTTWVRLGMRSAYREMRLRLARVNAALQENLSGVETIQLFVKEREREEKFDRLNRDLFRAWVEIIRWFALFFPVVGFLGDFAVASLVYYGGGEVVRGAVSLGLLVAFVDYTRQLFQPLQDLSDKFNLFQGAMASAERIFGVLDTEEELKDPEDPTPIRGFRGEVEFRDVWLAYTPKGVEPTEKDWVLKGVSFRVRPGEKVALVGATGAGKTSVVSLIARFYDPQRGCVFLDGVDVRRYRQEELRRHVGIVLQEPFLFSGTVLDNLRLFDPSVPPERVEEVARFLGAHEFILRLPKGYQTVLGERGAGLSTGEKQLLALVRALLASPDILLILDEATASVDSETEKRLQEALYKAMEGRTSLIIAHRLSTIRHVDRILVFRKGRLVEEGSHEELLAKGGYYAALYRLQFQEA
T1 sequence 2: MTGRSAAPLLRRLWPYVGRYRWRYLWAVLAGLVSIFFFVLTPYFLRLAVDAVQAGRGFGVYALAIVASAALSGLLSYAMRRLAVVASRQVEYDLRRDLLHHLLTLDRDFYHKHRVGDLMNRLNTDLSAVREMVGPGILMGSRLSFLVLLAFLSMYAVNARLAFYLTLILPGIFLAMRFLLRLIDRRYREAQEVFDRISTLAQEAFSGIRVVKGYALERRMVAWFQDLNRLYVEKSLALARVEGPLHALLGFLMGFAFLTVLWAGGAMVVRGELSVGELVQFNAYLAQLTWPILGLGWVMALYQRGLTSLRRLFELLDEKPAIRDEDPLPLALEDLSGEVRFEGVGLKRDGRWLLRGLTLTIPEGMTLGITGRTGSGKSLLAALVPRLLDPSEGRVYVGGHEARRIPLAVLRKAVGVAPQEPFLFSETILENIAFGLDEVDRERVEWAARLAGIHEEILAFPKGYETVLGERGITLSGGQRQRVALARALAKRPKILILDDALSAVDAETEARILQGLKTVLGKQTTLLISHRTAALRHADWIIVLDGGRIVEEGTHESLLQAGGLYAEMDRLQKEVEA
The experiment in a line: fluorescence polarisation.

Assay [2] deals with isolated nucleotide-binding domain of TmrB (NBD of TmrB) (Thermus thermophilus HB27, UniProt Q72J04). The experiment in a line: SEC.

Where no end group is shown, it is not given here.

For the molecule RRYC(fluorescein)KSTEL [fluorescent peptide RRY(C^Fluorescein)KSTEL (C4F)], the binding result in assay [1] was “binds”.

B1: Nb9F10, TmrAB-specific nanobody (alpaca) (VHH)
VHH: QLQLVESGGGLVQPGDSLRLSCAVSGSALDYNAIGWFRQAPGKEREGVACISKITGNTAYADSVKGRFTISRDNAKNTVHLQMNSLKPEDTAVYYCATVTAVLLPGRCVPGKYWGQGTPVTVSS
B1: in assay [2], the binding result is on record as “binds”.
